{"source": "paper PMC4989188", "about": "“Identification and characterization of chromosomal relBE toxin-antitoxin locus in Streptomyces cattleya DSM46488” (Scientific Reports, 2016)", "binders": {"B1": {"name": "RelB2sca antitoxin (SCATT_39280) of Streptomyces cattleya DSM 46488 (natural protein, UniProt G8WSR4 1-89, looked up)", "chain": "MTQPLPMESIRDVRAHLAEVVERADRDDVPTVITRRGKQVAAVVSIEVLRKYQEWEEREINRIIDERMANPTPGVPIEDIMRETLARSE", "notes": "Untagged in the co-purification; Copies 2 are those in the 2:2 complex with RelE2sca-His6; In the functional row the protein was expressed from pBAD-relB2sca-relEeco in E. coli MGJ5987; also called antitoxin RelB2sca; RelBsca; source: E. coli BL21(DE3), co-expressed with RelE2sca-His6 from pACYC-relB2sca-relE2scahis, co-purified on NTA-Ni resin"}}, "biological_target": "T1, RelE2sca-His6 toxin (SCATT_39270) of Streptomyces cattleya DSM 46488 (Streptomyces cattleya DSM 46488, UniProt F8K3H9 1-87)", "T1 construct": "also called toxin RelE2sca; not shown: His6, N-terminal, kept", "T1 sequence (looked up)": "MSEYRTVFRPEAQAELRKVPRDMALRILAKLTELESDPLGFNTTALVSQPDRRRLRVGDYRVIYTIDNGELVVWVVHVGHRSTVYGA", "test": "SEC", "conditions": "both partners purified"}
{"binder": "B1", "values": [{"measurement": "stoichiometry N", "result": "1 RelB2sca per RelE2sca-His6 (printed as 2:2)"}]}
